Substrate: N=C(N)N
Assay: HPLC guanidine / GC-MS urea quantification, velocity versus guanidine concentration
Format: biochemical, Synechocystis sp. PCC 6803
Details: 20 mM Tris-HCl pH 7.5, 50 mM NaCl, 1 mM MnCl2, 30 °C, His-tagged enzyme, no ATP

B1: Sll1077-His (Synechocystis sp. PCC 6803 substr. Kazusa) (protein)
chain: MSDATPFRPPSEAEEALIKETRLPLTGWQQEVDQGLTYGLEAAASIKDRSIPTFSRGELPHYAGINTFMKAPYLEDVREVGKYDVAIVGVPHDSGTTYRPGTRFGPQGIRRISALYTPYNFEMGVDLREQISLCDVGDIFTIPANNEKSFDQISKGIAHIFSSGAFPIILGGDHSIGFPTVRGICRHLGDKKVGIIHFDRHVDTQETDLDERMHTCPWFHATNMANAPAKNLVQLGIGGWQVPRQGVKVCRERATNILTVTDITEMSLDAAADFAIARATDGTDCVWISFDIDCIDAGFVPGTGWPEPGGLLPREALYLLKRIIRETNVCGMEVVEVSPPYDISDMTSLMATRVICDTMAHLVVSGQLPRTEKPAYIHAEANMAVDEPWQ
notes: full-length with C-terminal 6xHis tag kept (no XhoI linker, pPB316), overexpressed in and purified from Synechocystis 6803 strain PB816W
Km: 5.3 ± 1.2 mM | kcat: 0.040 ± 0.010 s⁻¹

Source: article PMC8390497, “A guanidine-degrading enzyme controls genomic stability of ethylene-producing cyanobacteria” (Nature Communications, 2021)
